Results from patent publication US20210246166A1 (Bayer, published 2021).
Numbered stars: 1 amine (or outer) side, 2 acyl side, 3 side chain; on linkers, the order of the positions; unused ones are H or OH. Bridge positions count the residues as written; N and C are the ends. Square brackets hold non-standard residues; d marks the D form. Ends that are not written are not given here. (S)‑4‑Piperazine‑2‑carboxylic acid = (S)-4-piperazine-2-carboxylic acid; 4‑Aminomethylphenylacetic acid = O=C(Cc1ccc(CN[*:1])cc1)[*:2]; NHCH2(1,3-C6H4)CH2CO = O=C(Cc1cccc(CN[*:1])c1)[*:2]; Oic = O=C(O)[C@@H]1C[C@@H]2CCCC[C@@H]2N1; PEG6 = NCCOCCOCCOCCOCCOCCOCCC(=O)O; tBuAla = CC(C)(C)C[C@H](N)C(=O)O; Pen = CC(C)(S)[C@H](N)C(=O)O; Orn = NCCC[C@H](N)C(=O)O; Dap = NC[C@H](N)C(=O)O; Ahx = NCCCCCC(=O)O; Sar = CNCC(=O)O

T1: recombinant rat MASP1 active protease (amino acids 302-704, C-terminal His Tag) (rat, UniProt Q8CHN8 302-704)
T1 sequence: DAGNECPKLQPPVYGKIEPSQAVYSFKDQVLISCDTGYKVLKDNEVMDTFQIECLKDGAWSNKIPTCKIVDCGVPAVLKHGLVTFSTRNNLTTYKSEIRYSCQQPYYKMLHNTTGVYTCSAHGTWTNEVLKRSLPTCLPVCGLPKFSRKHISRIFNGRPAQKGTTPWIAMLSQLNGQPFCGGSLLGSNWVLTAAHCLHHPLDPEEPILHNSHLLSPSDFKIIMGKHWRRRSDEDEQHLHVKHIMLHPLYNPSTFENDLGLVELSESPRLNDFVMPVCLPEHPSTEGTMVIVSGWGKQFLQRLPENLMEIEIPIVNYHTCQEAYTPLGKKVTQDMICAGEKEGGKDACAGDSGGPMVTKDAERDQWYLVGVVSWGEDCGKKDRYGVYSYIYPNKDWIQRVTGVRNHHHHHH

B1: Example 465: ((N-Me)G)-IC+SRSLP-(Oic)-I-(Pen)+IPD-(Ahx)-OH (peptide)
peptide: [Sar]ICSRSLP[Oic]I[Pen]IPD[Ahx]-OH
modifications: disulfide 3-11; N-terminus assumed
SMILES: CC[C@H](C)[C@H](NC(=O)CNC)C(=O)N[C@H]1CSSC(C)(C)[C@@H](C(=O)N[C@H](C(=O)N2CCC[C@H]2C(=O)N[C@@H](CC(=O)O)C(=O)NCCCCCC(=O)O)[C@@H](C)CC)NC(=O)[C@H]([C@@H](C)CC)NC(=O)[C@@H]2C[C@@H]3CCCC[C@@H]3N2C(=O)[C@@H]2CCCN2C(=O)[C@H](CC(C)C)NC(=O)[C@H](CO)NC(=O)[C@H](CCCNC(=N)N)NC(=O)[C@H](CO)NC1=O
B2: Example 466: ((N-Me)G)-IC+SRSLP-(Oic)-I-(Pen)+IPDD-OH (peptide)
peptide: [Sar]ICSRSLP[Oic]I[Pen]IPDD-OH
modifications: disulfide 3-11; N-terminus assumed
SMILES: CC[C@H](C)[C@H](NC(=O)CNC)C(=O)N[C@H]1CSSC(C)(C)[C@@H](C(=O)N[C@H](C(=O)N2CCC[C@H]2C(=O)N[C@@H](CC(=O)O)C(=O)N[C@@H](CC(=O)O)C(=O)O)[C@@H](C)CC)NC(=O)[C@H]([C@@H](C)CC)NC(=O)[C@@H]2C[C@@H]3CCCC[C@@H]3N2C(=O)[C@@H]2CCCN2C(=O)[C@H](CC(C)C)NC(=O)[C@H](CO)NC(=O)[C@H](CCCNC(=N)N)NC(=O)[C@H](CO)NC1=O
B3: Example 472: ((N-Me)G)-IC+SRSLP-(Oic)-I-(Pen)+IP-(PEG5(22 atoms))-OH (peptide)
peptide: [Sar]ICSRSLP[Oic]I[Pen]IP[PEG6]-OH
modifications: disulfide 3-11; N-terminus assumed
SMILES: CC[C@H](C)[C@H](NC(=O)CNC)C(=O)N[C@H]1CSSC(C)(C)[C@@H](C(=O)N[C@H](C(=O)N2CCC[C@H]2C(=O)NCCOCCOCCOCCOCCOCCOCCC(=O)O)[C@@H](C)CC)NC(=O)[C@H]([C@@H](C)CC)NC(=O)[C@@H]2C[C@@H]3CCCC[C@@H]3N2C(=O)[C@@H]2CCCN2C(=O)[C@H](CC(C)C)NC(=O)[C@H](CO)NC(=O)[C@H](CCCNC(=N)N)NC(=O)[C@H](CO)NC1=O
B4: Example 469: (Orn)-IC+SRSLP-(Oic)-I-(Pen)+IPD-OH (peptide)
peptide: [Orn]ICSRSLP[Oic]I[Pen]IPD-OH
modifications: disulfide 3-11; N-terminus assumed
SMILES: CC[C@H](C)[C@H](NC(=O)[C@@H](N)CCCN)C(=O)N[C@H]1CSSC(C)(C)[C@@H](C(=O)N[C@H](C(=O)N2CCC[C@H]2C(=O)N[C@@H](CC(=O)O)C(=O)O)[C@@H](C)CC)NC(=O)[C@H]([C@@H](C)CC)NC(=O)[C@@H]2C[C@@H]3CCCC[C@@H]3N2C(=O)[C@@H]2CCCN2C(=O)[C@H](CC(C)C)NC(=O)[C@H](CO)NC(=O)[C@H](CCCNC(=N)N)NC(=O)[C@H](CO)NC1=O
B5: Example 477: ((N-Me)G)-IC+SRSLP-(Oic)-I-(Pen)+IP-(3-Aminomethylphenylacetic acid)-OH (peptide)
peptide: [Sar]ICSRSLP[Oic]I[Pen]IP[NHCH2(1,3-C6H4)CH2CO]-OH
modifications: disulfide 3-11; N-terminus assumed
SMILES: CC[C@H](C)[C@H](NC(=O)CNC)C(=O)N[C@H]1CSSC(C)(C)[C@@H](C(=O)N[C@H](C(=O)N2CCC[C@H]2C(=O)NCc2cccc(CC(=O)O)c2)[C@@H](C)CC)NC(=O)[C@H]([C@@H](C)CC)NC(=O)[C@@H]2C[C@@H]3CCCC[C@@H]3N2C(=O)[C@@H]2CCCN2C(=O)[C@H](CC(C)C)NC(=O)[C@H](CO)NC(=O)[C@H](CCCNC(=N)N)NC(=O)[C@H](CO)NC1=O
B6: Example 463: ((N-Me)G)-IC+SRSLP-(Oic)-I-(Pen)+IPDK-OH (peptide)
peptide: [Sar]ICSRSLP[Oic]I[Pen]IPDK-OH
modifications: disulfide 3-11; N-terminus assumed
SMILES: CC[C@H](C)[C@H](NC(=O)CNC)C(=O)N[C@H]1CSSC(C)(C)[C@@H](C(=O)N[C@H](C(=O)N2CCC[C@H]2C(=O)N[C@@H](CC(=O)O)C(=O)N[C@@H](CCCCN)C(=O)O)[C@@H](C)CC)NC(=O)[C@H]([C@@H](C)CC)NC(=O)[C@@H]2C[C@@H]3CCCC[C@@H]3N2C(=O)[C@@H]2CCCN2C(=O)[C@H](CC(C)C)NC(=O)[C@H](CO)NC(=O)[C@H](CCCNC(=N)N)NC(=O)[C@H](CO)NC1=O
B7: Example 464: ((N-Me)G)-IC+SRSLP-(Oic)-I-(Pen)+IPGD-OH (peptide)
peptide: [Sar]ICSRSLP[Oic]I[Pen]IPGD-OH
modifications: disulfide 3-11; N-terminus assumed
SMILES: CC[C@H](C)[C@H](NC(=O)CNC)C(=O)N[C@H]1CSSC(C)(C)[C@@H](C(=O)N[C@H](C(=O)N2CCC[C@H]2C(=O)NCC(=O)N[C@@H](CC(=O)O)C(=O)O)[C@@H](C)CC)NC(=O)[C@H]([C@@H](C)CC)NC(=O)[C@@H]2C[C@@H]3CCCC[C@@H]3N2C(=O)[C@@H]2CCCN2C(=O)[C@H](CC(C)C)NC(=O)[C@H](CO)NC(=O)[C@H](CCCNC(=N)N)NC(=O)[C@H](CO)NC1=O
B8: Example 476: ((N-Me)G)-IC+SRSLP-(Oic)-I-(Pen)+IP-(4-Aminomethylphenylacetic acid)-OH (peptide)
peptide: [Sar]ICSRSLP[Oic]I[Pen]IP[4‑Aminomethylphenylacetic acid]-OH
modifications: disulfide 3-11; N-terminus assumed
SMILES: CC[C@H](C)[C@H](NC(=O)CNC)C(=O)N[C@H]1CSSC(C)(C)[C@@H](C(=O)N[C@H](C(=O)N2CCC[C@H]2C(=O)NCc2ccc(CC(=O)O)cc2)[C@@H](C)CC)NC(=O)[C@H]([C@@H](C)CC)NC(=O)[C@@H]2C[C@@H]3CCCC[C@@H]3N2C(=O)[C@@H]2CCCN2C(=O)[C@H](CC(C)C)NC(=O)[C@H](CO)NC(=O)[C@H](CCCNC(=N)N)NC(=O)[C@H](CO)NC1=O

What follows are binders tested against recombinant rat MASP2 active protease (amino acids 296-685, C-terminal His Tag) (rat, UniProt Q9JJS8 296-685) (assay: cell-based or functional assay).
Chain of recombinant rat MASP2 active protease (amino acids 296-685, C-terminal His Tag) (Q9JJS8 other isoform, or with tags, fused parts or gaps limits assumed): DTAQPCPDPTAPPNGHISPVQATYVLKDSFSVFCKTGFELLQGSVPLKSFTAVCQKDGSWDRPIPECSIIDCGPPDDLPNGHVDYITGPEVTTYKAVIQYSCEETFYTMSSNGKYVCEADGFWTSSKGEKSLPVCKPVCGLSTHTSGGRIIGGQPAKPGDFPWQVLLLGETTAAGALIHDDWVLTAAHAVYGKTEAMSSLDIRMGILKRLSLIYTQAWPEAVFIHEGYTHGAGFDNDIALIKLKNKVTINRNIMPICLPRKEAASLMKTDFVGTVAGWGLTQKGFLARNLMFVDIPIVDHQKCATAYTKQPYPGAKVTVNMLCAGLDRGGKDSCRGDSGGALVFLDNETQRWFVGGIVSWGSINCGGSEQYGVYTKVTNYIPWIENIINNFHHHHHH

Which “rat MASP2 IC50” value does the source give for B1 here?
The value was 140 nM.

With B2 as the binder, how does the “rat MASP2 IC50” value read?
The value was 72 nM.

Which “rat MASP2 IC50” value does the source give for B3 here?
The value was 49 nM.

For B4, which “rat MASP2 IC50” value is on record?
Its value is 34 nM.

For [Sar]ICSRSLP[Oic]I[Pen]IP[PEG4‑CH2CO2H(15atoms)]-OH (disulfide 3-11) [Example 470: ((N-Me)G)-IC+SRSLP-(Oic)-I-(Pen)+IP-(PEG4-CH2CO2H (15 atoms))-OH], which “rat MASP2 IC50” value is on record?
Its value is 54 nM.

B5 was tested. Which “rat MASP2 IC50” value did it give?
Its value is 123 nM.

How did the “rat MASP2 IC50” value turn out when [Sar]ICSRSLP[Oic]I[Pen]IPD[PEG4‑CH2CO2H(15atoms)]-OH (disulfide 3-11) [Example 471: ((N-Me)G)-IC+SRSLP-(Oic)-I-(Pen)+IPD-(PEG4-CH2CO2H (15 atoms))-OH] was run?
The value was 71 nM.

With B6 as the binder, how does the “rat MASP2 IC50” value read?
The value was 100 nM.

For [Piperidin‑4‑ylacetic acid]ICSRS[tBuAla]PPICIPD-OH (disulfide 3-11) [Example 475: (Piperidin-4-ylacetic acid)-IC+SRS-((tBu)A)-PPIC+IPD-OH], which “rat MASP2 IC50” value is on record?
The value was 25 nM.

[Sar]ICSRSLP[Oic]I[Pen]I[(S)‑4‑Piperazine‑2‑carboxylic acid]-OH (disulfide 3-11) [Example 474: ((N-Me))-GIC+SRSLP-(Oic)-I-(Pen)+I-((S)-4-Piperazine-2-carboxylic acid)-OH] was tested. Which “rat MASP2 IC50” value did it give?
Its value is 26 nM.

How did the “rat MASP2 IC50” value turn out when B7 was run?
Its value is 120 nM.

Which “rat MASP2 IC50” value does the source give for [Sar]ICSRSLP[Oic]I[Pen]IP[Dap]-OH (disulfide 3-11; also: Dap at position 14 joined through its 3-amino group) [Example 467: ((N-Me)G)-IC+SRSLP-(Oic)-I-(Pen)+IP-(*Dap)-OH] here?
Its value is 70 nM.

Which “rat MASP2 IC50” value does the source give for B8 here?
Its value is 61 nM.

These binders were tested against T1, recombinant rat MASP1 active protease … (assay: cell-based or functional assay).

For B1, which “rat MASP1 IC50” value is on record?
Its value is 72 nM.

For B2, which “rat MASP1 IC50” value is on record?
The value was 17.6 nM.

B3 was tested. Which “rat MASP1 IC50” value did it give?
Its value is 100 nM.

B4 was tested. Which “rat MASP1 IC50” value did it give?
The value was 120 nM.

How did the “rat MASP1 IC50” value turn out when [Sar]ICSRSLP[Oic]I[Pen]IP[PEG4‑CH2CO2H(15atoms)]-OH (disulfide 3-11) [Example 470: ((N-Me)G)-IC+SRSLP-(Oic)-I-(Pen)+IP-(PEG4-CH2CO2H (15 atoms))-OH] was run?
Its value is 100 nM.

With B5 as the binder, how does the “rat MASP1 IC50” value read?
Its value is 154 nM.

[Sar]ICSRSLP[Oic]I[Pen]IPD[PEG4‑CH2CO2H(15atoms)]-OH (disulfide 3-11) [Example 471: ((N-Me)G)-IC+SRSLP-(Oic)-I-(Pen)+IPD-(PEG4-CH2CO2H (15 atoms))-OH] was tested. Which “rat MASP1 IC50” value did it give?
Its value is 78 nM.

Which “rat MASP1 IC50” value does the source give for B6 here?
Its value is 190 nM.

With [Piperidin‑4‑ylacetic acid]ICSRS[tBuAla]PPICIPD-OH (disulfide 3-11) [Example 475: (Piperidin-4-ylacetic acid)-IC+SRS-((tBu)A)-PPIC+IPD-OH] as the binder, how does the “rat MASP1 IC50” value read?
The value was 250 nM.

Which “rat MASP1 IC50” value does the source give for [Sar]ICSRSLP[Oic]I[Pen]I[(S)‑4‑Piperazine‑2‑carboxylic acid]-OH (disulfide 3-11) [Example 474: ((N-Me))-GIC+SRSLP-(Oic)-I-(Pen)+I-((S)-4-Piperazine-2-carboxylic acid)-OH] here?
The value was 87 nM.

B7 was tested. Which “rat MASP1 IC50” value did it give?
The value was 94 nM.

For [Sar]ICSRSLP[Oic]I[Pen]IP[Dap]-OH (disulfide 3-11; also: Dap at position 14 joined through its 3-amino group) [Example 467: ((N-Me)G)-IC+SRSLP-(Oic)-I-(Pen)+IP-(*Dap)-OH], which “rat MASP1 IC50” value is on record?
Its value is 170 nM.

For B8, which “rat MASP1 IC50” value is on record?
Its value is 53 nM.
